# Experimental data from patent US20200331991A1 (Teva, published 2020).
# Where no end group is shown, it is not given here.
# T1: human α-CGRP 26-37 (human)
# T1 peptide: NFVPTNVGSKAF-NH2
# T2: rat α-CGRP (1-37) (rat, C-terminal amide; N-terminal biotin when captured on the SA chip)
# T2 construct: also called rat α (1-37); α-rat
# T2 peptide: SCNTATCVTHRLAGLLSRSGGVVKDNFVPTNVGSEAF
# T3: human β-CGRP (1-37) (human, not fully specified; C-terminal amide; N-terminal biotin when captured on the SA chip)
# T3 construct: also called human β (1-37)
# T3 peptide: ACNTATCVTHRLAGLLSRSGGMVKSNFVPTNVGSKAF
# T4: rat β-CGRP (1-37) (rat, C-terminal amide; N-terminal biotin when captured on the SA chip)
# T4 construct: also called rat β (1-37)
# T4 peptide: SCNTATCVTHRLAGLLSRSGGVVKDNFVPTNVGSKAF
# T5: human α-CGRP 8-37 (human, C-terminal amide)
# T5 peptide: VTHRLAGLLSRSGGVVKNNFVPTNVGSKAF
# T6: human α-CGRP P29A (19-37) (human)
# T6 peptide: SGGVVKNNFVATNVGSKAF-NH2
# T7: human α-CGRP K35A (19-37) (human, not fully specified)
# T7 peptide: SGGVVKNNFVPTNVGSAAF-NH2
# T8: human α-CGRP K35E (19-37) (human, not fully specified)
# T8 peptide: SGGVVKNNFVPTNVGSEAF-NH2
# T9: human α-CGRP K35M (19-37) (human, not fully specified)
# T9 peptide: SGGVVKNNFVPTNVGSMAF-NH2
# T10: human α-CGRP 1-36-COOH (human, free C-terminus (not amidated))
# T10 construct: also called 1-36 (not amidated at the C-terminus)
# T10 peptide: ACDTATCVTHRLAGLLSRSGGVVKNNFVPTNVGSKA
# B1: antibody G1 Fab fragment (Fab, V domains shown)
# VH: EVQLVESGGGLVQPGGSLRLSCAASGFTFSNYWISWVRQAPGKGLEWVAEIRSESDASATHYAEAVKGRFTISRDNAKNSLYLQMNSLRAEDTAVYYCLAYFDYGLAIQNYWGQGTLVTVSS
# VL: EIVLTQSPATLSLSPGERATLSCKASKRVTTYVSWYQQKPGQAPRLLIYGASNRYLGIPARFSGSGSGTDFTLTISSLEPEDFAVYYCSQSYNYPYTFGQGTKLEIK
# B2: Human adrenomedullin (1-52) (peptide)
# peptide: YRQSMNNFQGLRSFGCRFGTCTVQKLAHQIYQFTDKDKDNVAPRSKISPQGY-NH2
# modifications: ends and bridges not checked
# B3: human α-CGRP 1-19-COOH (peptide)
# peptide: ACDTATCVTHRLAGLLSRS-OH
# modifications: ends and bridges not checked
# B4: Human amylin (1-37) (peptide)
# peptide: KCNTATCATQRLANFLVHSSNNFGAILSSTNVGSNTY-NH2
# modifications: ends and bridges not checked
# B5: Human calcitonin (1-32) (peptide)
# peptide: CGNLSTCMLGTYTQDFNKFHTFPQTAIGVGAP-NH2
# modifications: ends and bridges not checked
# B6: human α-CGRP 1-13-COOH (peptide)
# peptide: ACDTATCVTHRLA-OH
# modifications: ends and bridges not checked
# Legend:
# human α-CGRP 19-36-COOH = human α-CGRP 19-36-COOH (human, Table 4: free C-terminus (COOH); paragraph 375 calls it amidated at the C-terminus); assay: Biacore peptide competition (FIG. 6)
# Excerpt: (§1) Y axis represents percentage of binding blocked by the presence of the competing peptide compared with the binding in the absence of the competing peptide.
# (§2) All these peptides are amidated at the C-terminus.
# human α-CGRP 1-19-COOH = biological target: B3; assay: Biacore peptide competition (FIG. 6)
# Excerpt: as §1, §2
# human α-CGRP 1-13-COOH = biological target: B6; assay: Biacore peptide competition (FIG. 6)
# Excerpt: as §1, §2
# Human calcitonin (1-32) = biological target: B5; assay: Biacore peptide competition (FIG. 6)
# Excerpt: as §1, §2
# Human amylin (1-37) = biological target: B4; assay: Biacore peptide competition (FIG. 6)
# Excerpt: as §1, §2
# [1] = biological target: B2; assay: Biacore peptide competition (FIG. 6)
# Excerpt: as §1, §2
# human α-CGRP 26-37 = biological target: T1, human α-CGRP 26-37; assay: Biacore: 50 nM G1 Fab with 10 uM competing peptide in solution, over human α-CGRP on chip
# Excerpt: as §1, §2
# rat α-CGRP (1-37) = biological target: T2, rat α-CGRP (1-37); assay: as above
# Excerpt: as §1, §2
# human β-CGRP (1-37) = biological target: T3, human β-CGRP (1-37); assay: as above
# Excerpt: as §1, §2
# rat β-CGRP (1-37) = biological target: T4, rat β-CGRP (1-37); assay: as above
# Excerpt: as §1, §2
# human α-CGRP 8-37 = biological target: T5, human α-CGRP 8-37; assay: as above
# Excerpt: as §1, §2
# [2] = biological target: T6, human α-CGRP P29A (19-37); assay: as above
# Excerpt: as §1, §2
# [3] = biological target: T7, human α-CGRP K35A (19-37); assay: as above
# Excerpt: as §1, §2
# [4] = biological target: T8, human α-CGRP K35E (19-37); assay: as above
# Excerpt: as §1, §2
# [5] = biological target: T9, human α-CGRP K35M (19-37); assay: as above
# Excerpt: as §1, §2
# human α-CGRP 1-36-COOH = biological target: T10, human α-CGRP 1-36-COOH; assay: as above
# antibody G1 Fab fragment = biological target: B1; assay: Biacore competition: G1 Fab 50 nM pre-incubated 1 h with 10 uM peptide, then over biotinylated human α-CGRP on SA chip
# Excerpt: as §1, §2
binder,measurement,setting,value
B1,binding result,human α-CGRP 19-36-COOH,no binding (tested: 10 uM peptide in 50 nM G1 Fab)
same,binding result,human α-CGRP 1-19-COOH,no binding (tested: 10 uM peptide in 50 nM G1 Fab)
same,binding result,human α-CGRP 1-13-COOH,no binding (tested: 10 uM peptide in 50 nM G1 Fab)
same,binding result,Human calcitonin (1-32),no binding (tested: 10 uM peptide in 50 nM G1 Fab)
same,binding result,Human amylin (1-37),no binding (tested: 10 uM peptide in 50 nM G1 Fab)
same,binding result,[1],no binding (tested: 10 uM peptide in 50 nM G1 Fab)
same,% of binding blocked by competing peptide,human α-CGRP 26-37,100%
same,% of binding blocked by competing peptide,rat α-CGRP (1-37),100%
same,% of binding blocked by competing peptide,human β-CGRP (1-37),100%
same,% of binding blocked by competing peptide,rat β-CGRP (1-37),100%
same,% of binding blocked by competing peptide,human α-CGRP 8-37,100%
same,% of binding blocked by competing peptide,[2],100%
same,% of binding blocked by competing peptide,[3],100%
same,% of binding blocked by competing peptide,[4],100%
same,% of binding blocked by competing peptide,[5],100%
same,% of binding blocked by competing peptide,human α-CGRP 1-36-COOH,~40%
B2,binding result,antibody G1 Fab fragment,no binding (tested: 10 uM)
B3,binding result,antibody G1 Fab fragment,no binding (tested: 10 uM)
B4,binding result,antibody G1 Fab fragment,no binding (tested: 10 uM)
"SGGVVKNNFVPTNVGSKA-NH2 (also called human α-CGRP 19-36, amidated at the C-terminus) [19-36 CONH2]",% Binding blocked,antibody G1 Fab fragment,0.6%
same,binding result,antibody G1 Fab fragment,no binding (tested: 10 uM)
B5,binding result,antibody G1 Fab fragment,no binding (tested: 10 uM)
B6,binding result,antibody G1 Fab fragment,no binding (tested: 10 uM)
